Laboratory results published in patent US11203773B2, “Designer ribosomes and methods of use thereof for incorporating non-standard amino acids into polypeptides” (Yale University, priority 2016, dated 2021).

Columns and labels:
N[C@@H](CCC(=O)O)C(=O)O [1] = assay: Aminoacylation of 32P-tRNA with α- and β3-amino acids; assay type: biochemical, E. coli; conditions: other: aminoacylation, GluRS
N[C@@H](CCC(=O)O)C(=O)O [2] = assay: purified protein, by the assay type; conditions: other: adenylation, GluRS; pH 7.0; 25.0 °C
Procedure: Adenylation of α- and β-Amino Acids Catalyzed by E. coli PheRS, GlyRS, MetRS, and GluRS. […] Briefly, assay mixtures (50 μL) assembled at 25° C. contained the requisite α- or β^3-amino acid substrate (between 5 μM and 5 mM) in 100 mM HEPES (pH 7.0) containing 100 mM KCl, 15 mM MgCl2, 2 mM ATP, 0.5 mM NaPPi, and 50 μCi [^32P]-NaPPi). Reactions were initiated upon addition of enzyme (10 nM MetRS, 10 nM PheRS, or 50 nM GlyRS; 100 nM GluRS for reactions with α-Glu or 1.13 μM GluRS for reactions with β^3-Glu), incubated for various times (10 sec to 10 min), and halted by adding a 5 μL reaction aliquot to 100 μL quenching solution (10% charcoal, 0.5% HCl). 50 μL of 200 mM NaPPi in 1.5 N HCl was then added to each quenched reaction to decrease nonspecific binding of pyrophosphate to the charcoal. Each quenched reaction was then filtered through Whatman filter paper (number 3), previously washed with washing solution (200 mM NaPPi in 1 N HCl) using a 96-well BIO-DOT® apparatus (BioRad). Each well of the apparatus was then washed four times with 200 μL aliquots of washing solution (by pipetting washing solution up and down at least 10 times per wash) to minimize nonspecific binding of pyrophosphate to charcoal. Each experimental well was paired with an analogous control well (no-enzyme control) that lacked enzyme; a single membrane contained time points for both α- and β^3-amino acid substrates and all no-enzyme controls. The membrane was allowed to dry and was protected with a sheet of Microseal B adhesive seals (Biorad) prior to exposure to a BAS Storage Phosphor screen. Screens were imaged on a Typhoon 9500FLA biomolecule imager and the signal intensity of each dot was quantified using ImageJ to determine the relative amount of [^32P]-ATP formed as a function of time (Ctime). Each raw value were corrected by subtracting the intensity of the dot corresponding to the appropriate no-enzyme control (Cblank) and the resulting corrected values of Ccorr (representing the relative amounts of ^32P-ATP formed) were plotted as a function of time to determine values of relative ^32P-ATP formed per minute. Those values were divided by the concentration of enzyme used, and the data was plotted as relative specific activity (^32P-ATP formed min^−1×μM^−1 enzyme) and fitted using Prism by performing nonlinear regression using the least squares method and Equation 1 to obtain RSA (relative specific activity) and KM values (Equation 1 and Table 2).
In Equation 1, v is the apparent relative specific activity (relative ^32P-ATP formed per minute) obtained at each substrate concentration divided by the enzyme concentration, RSA is the relative specific activity, S is the concentration of substrate, and KM is the Michaelis-Menten constant.

E. coli GluRS (Escherichia coli K-12)
Km (N[C@@H](CCC(=O)O)C(=O)O [1]): 277.1 ± 101.5 µM
kcat (N[C@@H](CCC(=O)O)C(=O)O [1]): 0.000767 ± 6.67e-05 s⁻¹
kcat/Km (N[C@@H](CCC(=O)O)C(=O)O [1]): 2.67 ± 1 M⁻¹ s⁻¹
Km (N[C@@H](CCC(=O)O)C(=O)O [2]): 76.4 ± 43.0 µM
kcat (N[C@@H](CCC(=O)O)C(=O)O [2]): 22.5 ± 3.43 s⁻¹
kcat/Km (N[C@@H](CCC(=O)O)C(=O)O [2]): 293000 ± 172000 M⁻¹ s⁻¹
